Patent US20050042209A1, “MUC1 extracellular domain and cancer treatment compositions and methods derived therefrom” (priority 2000, published 2005)

System: HCT116 cells
Assay: Apoptosis (sub-G1 DNA, TUNEL) in HCT116 transfectants
Assay type: cell-based, human
Settings: FIG. 19
Experimental: Methods. Apoptotic cells were quantified by analysis of sub-G1 DNA and TUNEL staining. To assess sub-G1 DNA content, cells were harvested, washed with PBS, fixed with 80% ethanol, and incubated in PBS containing 20 ng/ml RNase (Roche) for 60 min at 37° C. Cells were then stained with […] propidium iodide (Sigma) for 30 min at room temperature in the dark. DNA content was analyzed by flow cytometry (EPICS XL-MCL, Coulter Corp.). Apoptotic cells with DNA fragmentation were detected by staining with the In Situ cell death detection kit (TUNEL; Roche Applied Science) and visualized by confocal microscopy (ZEISS LSM510). After staining, cells were analyzed by flow cytometry. Other experimental procedures and methods were as described in Example 15.
Results. To determine if MUC1 affects the induction of apoptosis by CDDP, cells were analyzed for sub-G1 DNA content. […] Stimulation of cell surface death receptors with TNF-α or the TNF-related apoptosis inducing factor TRAIL is associated with activation of the extrinsic apoptotic pathway. To determine if MUC1 affects death receptor-induced apoptosis, HCT116 cells were treated with TNF-α.

B1: TRAIL: TNF-related apoptosis inducing factor TRAIL, rhTRAIL (Calbiochem-Novabiochem) (protein, UniProt P50591 1-281, looked up)
Tumor necrosis factor ligand …: MAMMEVQGGPSLGQTCVLIVIFTVLLQSLCVAVTYVYFTNELKQMQDKYSKSGIACFLKEDDSYWDPNDEESMNSPCWQVKWQLRQLVRKMILRTSEETISTVQEKQQNISPLVRERGPQRVAAHITGTRGRSNTLSSPNSKNEKALGRKINSWESSRSGHSFLSNLHLRNGELVIHEKGFYYIYSQTYFRFQEEIKENTKNDKQMVQYIYKYTSYPDPILLMKSARNSCWSKDAEYGLYSIYQGGIFELKENDRIFVSVTNEHLIDMDHEASFFGAFLVG
B1 was tested. Which “TRAIL-induced apoptosis, effect of MUC1” value (HCT116/MUC1 cells) did it give?
The value was “attenuated this response”.

And the apoptosis (HCT116/vector cells, 100 ng/ml TRAIL without CHX)?
The apoptosis was “effective in inducing apoptosis”.
